Source: patent US20150344540A1, “NOVEL GLP-1 RECEPTOR AGONISTS WITH CHOLESTEROL EFFLUX ACTIVITY” (NOVO NORDISK A/S, priority 2012, published 2015)
Where no end group is shown, it is not given here. [ ]: non-standard residue; d: D form. Aib = CC(C)(N)C(=O)O

Molecular target: human GLP-1 receptor (human, UniProt P43220)
Assay: cell-based or functional assay

Row | Binder | CRE luciferase EC50, 0% HSA [nM] | CRE luciferase EC50, 1% HSA [nM]
1 | H[Aib]EGTFTSDLSKQMEEEAVREFIEWLKNK[Aib]PEFLELL-NH2 (N-terminus assumed; SMILES CC[C@H](C)[C@H](NC(=O)[C@H](Cc1ccccc1)NC(=O)[C@H](CCC(=O)O)NC(=O)[C@H](CCCNC(=N)N)NC(=O)[C@@H](NC(=O)[C@H](C)NC(=O)[C@H](CCC(=O)O)NC(=O)[C@H](CCC(=O)O)NC(=O)[C@H](CCC(=O)O)NC(=O)[C@H](CCSC)NC(=O)[C@H](CCC(N)=O)NC(=O)[C@H](CCCCN)NC(=O)[C@H](CO)NC(=O)[C@H](CC(C)C)NC(=O)[C@H](CC(=O)O)NC(=O)[C@H](CO)NC(=O)[C@@H](NC(=O)[C@H](Cc1ccccc1)NC(=O)[C@@H](NC(=O)CNC(=O)[C@H](CCC(=O)O)NC(=O)C(C)(C)NC(=O)[C@@H](N)Cc1c[nH]cn1)[C@@H](C)O)[C@@H](C)O)C(C)C)C(=O)N[C@@H](CCC(=O)O)C(=O)N[C@@H](Cc1c[nH]c2ccccc12)C(=O)N[C@@H](CC(C)C)C(=O)N[C@@H](CCCCN)C(=O)N[C@@H](CC(N)=O)C(=O)N[C@@H](CCCCN)C(=O)NC(C)(C)C(=O)N1CCC[C@H]1C(=O)N[C@@H](CCC(=O)O)C(=O)N[C@@H](Cc1ccccc1)C(=O)N[C@@H](CC(C)C)C(=O)N[C@@H](CCC(=O)O)C(=O)N[C@@H](CC(C)C)C(=O)N[C@@H](CC(C)C)C(N)=O) [[Aib2,Glu21,Lys29,Aib30,Glu32,Phe33,Leu34,Glu35,Leu36,Leu37]-Exendin-4-(1-37)-peptide amide] | 0.058 | 0.032
2 | H[Aib]EGTFTSDLSKQMEEEAVREFIEWLKNK[Aib]LSFLELL-NH2 (N-terminus assumed; SMILES CC[C@H](C)[C@H](NC(=O)[C@H](Cc1ccccc1)NC(=O)[C@H](CCC(=O)O)NC(=O)[C@H](CCCNC(=N)N)NC(=O)[C@@H](NC(=O)[C@H](C)NC(=O)[C@H](CCC(=O)O)NC(=O)[C@H](CCC(=O)O)NC(=O)[C@H](CCC(=O)O)NC(=O)[C@H](CCSC)NC(=O)[C@H](CCC(N)=O)NC(=O)[C@H](CCCCN)NC(=O)[C@H](CO)NC(=O)[C@H](CC(C)C)NC(=O)[C@H](CC(=O)O)NC(=O)[C@H](CO)NC(=O)[C@@H](NC(=O)[C@H](Cc1ccccc1)NC(=O)[C@@H](NC(=O)CNC(=O)[C@H](CCC(=O)O)NC(=O)C(C)(C)NC(=O)[C@@H](N)Cc1c[nH]cn1)[C@@H](C)O)[C@@H](C)O)C(C)C)C(=O)N[C@@H](CCC(=O)O)C(=O)N[C@@H](Cc1c[nH]c2ccccc12)C(=O)N[C@@H](CC(C)C)C(=O)N[C@@H](CCCCN)C(=O)N[C@@H](CC(N)=O)C(=O)N[C@@H](CCCCN)C(=O)NC(C)(C)C(=O)N[C@@H](CC(C)C)C(=O)N[C@@H](CO)C(=O)N[C@@H](Cc1ccccc1)C(=O)N[C@@H](CC(C)C)C(=O)N[C@@H](CCC(=O)O)C(=O)N[C@@H](CC(C)C)C(=O)N[C@@H](CC(C)C)C(N)=O) [[Aib2,Glu21,Lys29,Aib30,Leu31,Phe33,Leu34,Glu35,Leu36,Leu37]-Exendin-4-(1-37)-peptide amide] | 0.358 | 0.145
3 | H[Aib]EGTFTSDLSKQMEEEAVREFIEWLKNK[Aib]LESLELL-NH2 (N-terminus assumed; SMILES CC[C@H](C)[C@H](NC(=O)[C@H](Cc1ccccc1)NC(=O)[C@H](CCC(=O)O)NC(=O)[C@H](CCCNC(=N)N)NC(=O)[C@@H](NC(=O)[C@H](C)NC(=O)[C@H](CCC(=O)O)NC(=O)[C@H](CCC(=O)O)NC(=O)[C@H](CCC(=O)O)NC(=O)[C@H](CCSC)NC(=O)[C@H](CCC(N)=O)NC(=O)[C@H](CCCCN)NC(=O)[C@H](CO)NC(=O)[C@H](CC(C)C)NC(=O)[C@H](CC(=O)O)NC(=O)[C@H](CO)NC(=O)[C@@H](NC(=O)[C@H](Cc1ccccc1)NC(=O)[C@@H](NC(=O)CNC(=O)[C@H](CCC(=O)O)NC(=O)C(C)(C)NC(=O)[C@@H](N)Cc1c[nH]cn1)[C@@H](C)O)[C@@H](C)O)C(C)C)C(=O)N[C@@H](CCC(=O)O)C(=O)N[C@@H](Cc1c[nH]c2ccccc12)C(=O)N[C@@H](CC(C)C)C(=O)N[C@@H](CCCCN)C(=O)N[C@@H](CC(N)=O)C(=O)N[C@@H](CCCCN)C(=O)NC(C)(C)C(=O)N[C@@H](CC(C)C)C(=O)N[C@@H](CCC(=O)O)C(=O)N[C@@H](CO)C(=O)N[C@@H](CC(C)C)C(=O)N[C@@H](CCC(=O)O)C(=O)N[C@@H](CC(C)C)C(=O)N[C@@H](CC(C)C)C(N)=O) [[Aib2,Glu21,Lys29,Aib30,Leu31,Glu32,Leu34,Glu35,Leu36,Leu37]-Exendin-4-(1-37)-peptide amide] | 0.023 | 0.011
